These results are taken from patent US11466260B2, “Thermostable haloarchaeal inorganic pyrophosphatase” (UNIVERSITY OF FLORIDA RESEARCH FOUNDATION, INCORPORATED, priority 2015, dated 2022).

One data set deals with T1, HvPPA (Haloferax volcanii, UniProt D4GT97).
T1 construct: thrombin-cleavage site (linker between His6 and HvPPA) (N); made in house; host or cells: Haloferax volcanii H26-pJAM2920
T1 sequence (D4GT97 1-177): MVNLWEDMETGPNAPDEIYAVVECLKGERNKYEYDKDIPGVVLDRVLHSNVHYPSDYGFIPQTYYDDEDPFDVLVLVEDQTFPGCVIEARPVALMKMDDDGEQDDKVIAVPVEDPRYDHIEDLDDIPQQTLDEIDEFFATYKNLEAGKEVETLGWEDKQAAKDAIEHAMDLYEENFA
The data set is described as follows: Sodium fluoride-based inhibition of HvPPA. The class given is biochemical. The conditions noted are these: Ki.

The conditions of data set [1]: cited from earlier work; for Vmax: highest reported.

What is called Ki is a dissociation constant, usually derived from enzyme kinetics or from competition with a known ligand. Read a low Ki as higher affinity. As a reminder, the Km is the substrate concentration at which the rate is half of its maximum.

Like-named read-outs stand apart in the source and are kept apart here.

Experimental for HvPPA: A) HvPPA (1.3 μg) was assayed in 1 ml reaction volume containing 1 mM PPi, 10 mM MgCl2, 3 M NaCl and 20 mM Tris-Cl buffer pH 7.5 supplemented with NaF as indicated. Reactions were monitored for 15 min at RT.
HvPPA-mediated hydrolysis of PPi to Pi was determined spectrophotometrically. Reagents were in nanopure water (Barnstead/Thermolyne Nanopure lab water system). Sodium pyrophosphate tetrabasic decahydrate (Sigma Aldrich) was used as a substrate. For kinetic measurements, reaction mixtures (500 μl total) contained 0.5-1 μg HvPPA and 1 mM PPi in high-salt buffer (3 M NaCl and 20 mM Tris-HCl, pH 8.5). Reactions were incubated at 42° C. for 1-3 min. Orthophosphate levels were determined by malachite green assay. Briefly, 2.5 ml of 14% (w/v) (NH4)2MoO4 and 0.2 ml of 11% (v/v) TWEEN 20 ® (Polyoxyethylene sorbitan monolaurate) were added into a 10-ml color reagent I (containing 1.67 ml conc. sulfuric acid, 8.33 ml nanopure H2O, and 12.22 mg malachite green). In triplicate, 50 μl of the color reagent was mixed with 200 μl of the reaction mixture and incubated at room temperature for 10 min. The formation of (MG^+)(H2PMo12O40) (where MG^+ represents ionized malachite green) was monitored at A630. A less sensitive malachite green assay was also used in which reaction aliquots (50 μl) were mixed with 250 μl color reagent II and 10 μl 1.5% (v/v) TWEEN 20 ® (Polyoxyethylene sorbitan monolaurate) in triplicate; product formation was immediately monitored at A650. Color reagent II was generated by mixing 1 volume of 4.2% (w/v) (NH4)2MoO4 in 5 N HCl with 3 volumes of 0.2% (w/v) malachite green; after 30 minutes, the solution was filtered with a 0.45 μm filter and stored at room temperature. Freeze-dried KH2PO4 was used as the standard. Assay mixtures with PPi minus HvPPA were used for individual background subtraction. All proteins used in this assay were buffer-exchanged with Tris-high-salt buffer in nanopure H2O prior to use. All experiments were performed in triplicate and the mean±standard deviation (S.D.) was calculated.

As to `F` [NaF, sodium fluoride], the values for the Ki at HvPPA (pH 7.5) and at HvPPA (pH 8.5) were 200 µM and 1800 µM, respectively.

B1: Thermoplasma acidophilum: Class A type inorganic pyrophosphatase of Thermoplasma acidophilum (protein, UniProt P37981 1-179, looked up)
Inorganic pyrophosphatase: MESFYHSVPVGPKPPEEVYVIVEIPRGSRVKYEIAKDFPGMLVDRVLYSSVVYPVDYGLIPRTLYYDGDPMDVMVLISQPTFPGAIMKVRPIGMMKMVDQGETDNKILAVFDKDPNVSYIKDLKDVNAHLLDEIANFFSTYKILEKKETKVLGWEGKEAALKEIEVSIKMYEEKYGKKN
Regarding B1, the Vmax in data set [1] (56° C.) is given as 1100 U · mg^−1. Also, the “Hill coefficient(s) (Mg^2+)” value in data set [1] is 1.8 (Mg^2+). In addition, the Km in data set [1] (for Mg^2+, read-out: Km Mg^2+) was 1700 µM; in data set [1] (for PPi, read-out: Km PPi) it was 7 µM.

B2: Methanothermobacter thermautotrophicus: Class A type inorganic pyrophosphatase of Methanothermobacter thermautotrophicus (Methanobacterium thermoautotrophicum) (protein, UniProt O26363 1-176, looked up)
Inorganic pyrophosphatase: MNLWKDIEPGPSVPEVVYAVVEIPKGSRNKYEYHKDLQAFALDRVLYSAVFYPAEYGIIPRTLYDDGDPMDILVLMDEPTFPGCIIESRPIGLLRMIDGGDQDDKILAVPVADPHFADVKDISDIPEHNLKEIANFFETYKKLEGKKTETLGWEGAEKAFEAVNHSIELYRKKYME
For B2, the “pH, optimum” value in data set [1] (60° C.) is on record as “pH 7.7 (60° C.)”. Moreover, in data set [1], the “Hill coefficient(s) (Mg^2+)” value is listed as 2.0 (Mg^2+) and the Vmax was 570 U · mg^−1. Besides, the “Hill coefficient(s) (PPi)” value in data set [1] (PPi) is 3.3 (PPi),. Besides, the Michaelis constant (Km) in data set [1] (for Mg^2+, read-out: Km Mg^2+) was 4900 µM. In addition, in data set [1] (for PPi, read-out: Km PPi), the Km was 160 µM.

B3: Pyrococcus horikoshii: Class A type inorganic pyrophosphatase of Pyrococcus horikoshii (protein, UniProt O59570 1-178, looked up)
Inorganic pyrophosphatase: MNPFHDLEPGPNVPEVVYALIEIPKGSRNKYELDKETGLLKLDRVLYTPFHYPVDYGIIPRTWYEDGDPFDIMVIMREPTYPLTIIEARPIGLFKMIDSGDKDYKVLAVPVEDPYFKDWKDISDVPKAFLDEIAHFFKRYKELEGKEIIVEGWEGAEAAKREILRAIEMYKEKFGKKE
Regarding B3, the Vmax in data set [1] (60° C.) was 930 U · mg^−1. Further, the Km in data set [1] (for Mg^2+, read-out: Km Mg^2+) was 300 µM. Besides, the “Hill coefficient(s)” value in data set [1] (in words) is given as “Cooperative”. For the same molecule, the “Substrate(s) hydrolyzed: ADP” value in data set [1] (substrate ADP) is given as “(2.9%)]”. In data set [1] (substrate ATP), the “Substrate(s) hydrolyzed: ATP” value was “ATP (5.9%); ADP”. Further, in data set [1] (substrate P3), the “Substrate(s) hydrolyzed: P3” value is 2.7%.
